Source: patent publication US12697371B2, “Method for preventing, treating or delaying myocardial damage using neuregulin and composition” (ZENSUN (SHANGHAI) SCIENCE & TECHNOLOGY, CO., LTD., priority 2019, dated 2026)
Several values for one entry are separate records, joined by “and”; a condition that tells them apart may be missing. Equal entries are not always repeated.

Tests used:
[1] = test system: rats with acute myocardial infarction caused by left coronary artery ligation; test: Echocardiography, rat acute myocardial infarction, long-term subcutaneous NRG followed by withdrawal through dose reduction (Example 4); format: in vivo, Wistar rats
Procedure: (§1) Established in the same way as the rat model of heart failure caused by coronary artery ligation in 5.1, Embodiment 1
The rats were randomly divided into groups and medicated upon coronary artery ligation. According to post-ligation survival, the rats were randomly divided into 2 groups by body weight. Subcutaneous injection was given 3 times a day, and the animals were weighed once a day. The animals were medicated by weight. Echocardiography was performed on day 10 after modeling. All the animals underwent echocardiography every 10 days, underwent echocardiography every week after dose reduction, and underwent echocardiography every 2 weeks after complete withdrawal. All the animals were medicated continuously till day 60, and then a three-week dose-reduction withdrawal plan was implemented: The administered dose was reduced to 15 μg/kg, 7.5 μg/kg and 3.75 μg/kg in the first, second and third week, respectively. The drug was completely withdrawn after three-week dose reduction to observe the clinical symptoms.
(§2) After being anesthetized with 4% isoflurane, the rats were fixed onto the operating board in the left lateral recumbent position. The head of the rats was fixed in the breathing mask of the gaseous anesthesia machine, with isoflurane used for maintenance of anesthesia. After chest hair removal, the skin was disinfected with 75% alcohol and coated with a coupling agent. An echocardiography probe was used to detect any echo signal from the left ventricle of the rats. The left ventricular end-diastolic diameter and left ventricular end-systolic diameter (D) were measured. The left ventricular end-diastolic volume (EDV) and end-systolic volume (ESV) were calculated. The ejection fraction (EF) value was found, EP=(EDV−ESV)/EDV*100%.
All experimental data were expressed in ±SD. GraphPad Prism6 was used for one-way ANOVA analysis. P<0.05 indicates a significant inter-group difference; P<0.01 indicates an extremely significant inter-group difference.

[2] = test system: rats with acute myocardial infarction caused by left coronary artery ligation; test: Echocardiography, rat acute myocardial infarction, long-term subcutaneous NRG at different frequencies (Example 2); format: in vivo, Wistar rats
Procedure: as §1
All the experimental animals were randomly divided into groups upon coronary artery ligation. According to post-ligation survival, the rats were randomly divided into 4 groups by body weight: the excipient group (control group), the NRG30 μg/kgDay group, the NRG30 μg/kg/BlW group and the NRG30 μgkgDay*7+QW group. Administration began on the day following the animal model establishment of myocardial infarction. For the first three groups and for the fourth group on the first 7 days, the rats were given subcutaneous injection 3 times a day and weighed once a day. They took medicine by weight and the dose was 30 μg/kg/day. For the fourth group in the last four weeks, the rats were injected with NRG on one day per week, and the daily dose was 30 μg/kg.
as §2, with “calculated. Also, the” for “calculated. The”, “found, […]. The cardiac function of the rats was performed by echocardiography in the 1st, 2nd, 3rd and 5th weeks after the occurrence of myocardial infarction.” for “found, EP=(EDV−ESV)/EDV*100%.”

[3] = DAY 10, 30 μg/kg/Day sc, 3 times a day, continuous
[4] = DAY 30, 30 μg/kg/Day sc, 3 times a day, continuous
[5] = DAY 50, 30 μg/kg/Day sc, 3 times a day, continuous
[6] = DAY 60, 30 μg/kg/Day sc, 3 times a day, continuous
[7] = DAY 81, 30 μg/kg/Day sc × 60 days, then three weeks of dose reduction (15, 7.5, 3.75 μg/kg)
[8] = DAY 88, after complete withdrawal on day 81 (30 μg/kg/Day sc × 60 days + 3-week dose reduction)
[9] = DAY 102, after complete withdrawal on day 81 (30 μg/kg/Day sc × 60 days + 3-week dose reduction)
[10] = DAY 116, after complete withdrawal on day 81 (30 μg/kg/Day sc × 60 days + 3-week dose reduction)
[11] = DAY 143 (ninth week after withdrawal), after complete withdrawal on day 81
[12] = 30 μg/kg/Day sc, after 35 days of continuous administration
[13] = DAY 8, 30 μg/kg BIW sc, 3 times a day, 2 days a week × 5 weeks
[14] = DAY 8, 30 μg/kg Day*7 + QW sc, 3 times a day × 7 days, then 1 day/week × 4 weeks
[15] = DAY 8, 30 μg/kg/Day sc, 3 times a day × 35 days
[16] = DAY 15, 30 μg/kg BIW sc, 3 times a day, 2 days a week × 5 weeks
[17] = DAY 15, 30 μg/kg Day*7 + QW sc, 3 times a day × 7 days, then 1 day/week × 4 weeks
[18] = DAY 15, 30 μg/kg/Day sc, 3 times a day × 35 days
[19] = DAY 22, 30 μg/kg BIW sc, 3 times a day, 2 days a week × 5 weeks
[20] = DAY 22, 30 μg/kg Day*7 + QW sc, 3 times a day × 7 days, then 1 day/week × 4 weeks
[21] = DAY 22, 30 μg/kg/Day sc, 3 times a day × 35 days
[22] = DAY 36, 30 μg/kg BIW sc, 3 times a day, 2 days a week × 5 weeks
[23] = DAY 36, 30 μg/kg Day*7 + QW sc, 3 times a day × 7 days, then 1 day/week × 4 weeks
[24] = DAY 36, 30 μg/kg/Day sc, 3 times a day × 35 days

B1: NRG: fragment of the NRG-1β2 isomer, 177-237 amino acid fragment containing an EGF-like domain (SEQ ID NO: 1); developed by Zensun (protein, listed as Homo sapiens)
chain: SHLVKCAEKEKTFCVNGGECFMVKDLSNPSRYLCKCPNEFTGDRCQNYVMASFYKAEELYQ
LVEDd and LVEDs compared with the control group ([1]; 30 μg/kg/Day sc, 60 consecutive days): significantly reduced | EF value compared with the control group ([1]; 30 μg/kg/Day sc, after 60 days of continuous administration): increased significantly | EF [1, 3]: 50.5 ± 4.96 % | LVEDd [1, 3]: 0.821 ± 0.05 cm | LVEDs [1, 3]: 0.637 ± 0.06 cm | EF [1, 4]: 46.8 ± 6.37 % | LVEDd [1, 4]: 0.912 ± 0.06 cm | LVEDs [1, 4]: 0.725 ± 0.07 cm | EF [1, 5]: 44.4 ± 7.85 % | LVEDd [1, 5]: 0.934 ± 0.07 cm | LVEDs [1, 5]: 0.754 ± 0.09 cm | EF [1, 6]: 43.8±8.0% and 43.8 ± 8.04 % | LVEDd [1, 6]: 0.981±0.08 cm | LVEDs [1, 6]: 0.794±0.08 cm | EF [1, 7]: 42.3±11.2% | LVEDd [1, 7]: 0.981±0.08 cm and 0.981 ± 0.07 cm | LVEDs [1, 7]: 0.799±0.08 cm | EF [1, 8]: 39.3±12.7% and 39.3 ± 12.71 % | LVEDd [1, 8]: 0.994±0.08 cm | LVEDs [1, 8]: 0.826±0.10 cm | EF [1, 9]: 36.6 ± 7.69 % | LVEDd [1, 9]: 1.031 ± 0.07 cm | LVEDs [1, 9]: 0.872 ± 0.08 cm | EF [1, 10]: 33.3 ± 5.12 % | LVEDd [1, 10]: 1.054 ± 0.07 cm | LVEDs [1, 10]: 0.908 ± 0.08 cm | EF [1, 11]: 33.4±7.6% | LVEDd [1, 11]: 1.104±0.08 cm | LVEDs [1, 11]: 0.950±0.09 cm | Cardiac function, overall conclusion ([1]; a long time after withdrawal): significant improving effect on the cardiac function | EF value compared with the control group ([1]; nine weeks after withdrawal): still showed a rising trend | LVEDd and LVEDs compared with the control group ([1]; nine weeks after withdrawal): there remained a significant difference | EF value compared with the control group ([2]; 30 μg/kg/BIW sc, after 35 days): rising trend | EF value compared with the control group [2, 12]: significantly higher | LVEDd and LVEDs compared with the control group [2, 12]: significantly reduce | Cardiac function compared with the control group ([2]; 30 μg/kg/Day*7+QW sc, first 7 days of continuous administration): improved to some extent | EF [2, 13]: 50.9 ± 8.958% | LVEDd [2, 13]: 0.809 ± 0.045 cm | LVEDs [2, 13]: 0.625 ± 0.068 cm | EF [2, 14]: 50.9 ± 7.337% | LVEDd [2, 14]: 0.785 ± 0.045 cm | LVEDs [2, 14]: 0.607 ± 0.061 cm | EF [2, 15]: 52.2 ± 7.802% | LVEDd [2, 15]: 0.785 ± 0.046 cm | LVEDs [2, 15]: 0.601 ± 0.063 cm | EF [2, 16]: 48.9 ± 9.893% | LVEDd [2, 16]: 0.856 ± 0.065 cm | LVEDs [2, 16]: 0.671 ± 0.091 cm | EF [2, 17]: 47.1 ± 8.344% | LVEDd [2, 17]: 0.864 ± 0.054 cm | LVEDs [2, 17]: 0.686 ± 0.074 cm | EF [2, 18]: 50.3 ± 8.49% | LVEDd [2, 18]: 0.832 ± 0.054 cm | LVEDs [2, 18]: 0.646 ± 0.075 cm | EF [2, 19]: 47.1 ± 10.427% | LVEDd [2, 19]: 0.896 ± 0.074 cm | LVEDs [2, 19]: 0.711 ± 0.102 cm | EF [2, 20]: 44.7 ± 8.434% | LVEDd [2, 20]: 0.905 ± 0.062 cm | LVEDs [2, 20]: 0.729 ± 0.08 cm | EF [2, 21]: 49.5 ± 7.897% | LVEDd [2, 21]: 0.859 ± 0.057 cm | LVEDs [2, 21]: 0.670 ± 0.069 cm | EF [2, 22]: 45.2 ± 10.248% | LVEDd [2, 22]: 0.928±0.084 cm | LVEDs [2, 22]: 0.746 ± 0.110 cm | EF [2, 23]: 42.7±9.892% | LVEDd [2, 23]: 0.931±0.070 cm | LVEDs [2, 23]: 0.76 ± 0.097 cm | EF [2, 24]: 47.9±8.342% | LVEDd [2, 24]: 0.879±0.058 cm | LVEDs [2, 24]: 0.694±0.077 cm
